In the RNAGym collection of RNA variant scans (doi:10.7554/elife.80360):

B1: Hairpin Ribozyme (parent)
chain: GUCCUCUUUCACGUGCGCGUGAAAGAGAGAAGUGAACCAGAGAAACACACGUUGUGGUAUAUUACCUGGUA

Variants of: B1
Experiment: self-cleavage, relative activity (ratio to wild type); higher = more cleavage; co-transcriptional

| Variant | self-cleavage |
| --- | --- |
| GUCCUCUUUCACGUGCGCGUGAAAGAGCGAAGUAAACCAGAGAAACACACGUUGUGGUAUAUUACCUGGUA | 0.753 |
| GUCCUCUUUCACGUGCGCGUGAAAGAGCGAAGUUAACCAGAGAAACACACGUUGUGGUAUAUUACCUGGUA | 1.23 |
| GUCCUCUUUCACGUGCGCGUGAAAGAGCGAAGUGAACCAAAGAAACACACGUUGUGGUAUAUUACCUGGUA | 0.131 |
| GUCCUCUUUCACGUGCGCGUGAAAGAGCGAAGUGAACCAGAUAAACACACGUUGUGGUAUAUUACCUGGUA | 0.0852 |
| GUCCUCUUUCACGUGCGCGUGAAAGAGCGAAGUGAACCAGAGAAACACACUUUGUGGUAUAUUACCUGGUA | 0.746 |
| GUCCUCUUUCACGUGCGCGUGAAAGAGCGAAGUGAACCAGAGAAACACACGUUAUGGUAUAUUACCUGGUA | 0.301 |
| GUCCUCUUUCACGUGCGCGUGAAAGAGCGAAGUGAACCAGAGAAACACACGUUCUGGUAUAUUACCUGGUA | 0.187 |
| GUCCUCUUUCACGUGCGCGUGAAAGAGCGAAGUGAACCAGAGAAACACACGUUGUAGUAUAUUACCUGGUA | 0.137 |
| GUCCUCUUUCACGUGCGCGUGAAAGAGCGAAGUGAACCAGAGAAACACACGUUGUUGUAUAUUACCUGGUA | 0.0871 |
| GUCCUCUUUCACGUGCGCGUGAAAGAGCGAAGUGAACCAGAGAAACACACGUUGUGCUAUAUUACCUGGUA | 0.145 |
| GUCCUCUUUCACGUGCGCGUGAAAGAGCGAAGUGAACCAGAGAAACACACGUUGUGUUAUAUUACCUGGUA | 0.0228 |
| GUCCUCUUUCACGUGCGCGUGAAAGAGCGAAGUGAACCAGAGAAACACACGUUGUGGUAUAUUACCUAGUA | 0.182 |
| GUCCUCUUUCACGUGCGCGUGAAAGAGCGAAGUGAACCAGAGAAACACACGUUGUGGUAUAUUACCUUGUA | 0.214 |
| GUCCUCUUUCACGUGCGCGUGAAAGAGCGAAGUGAACCAGAGAAACACACGUUGUGGUAUAUUACCUGUUA | 0.0989 |
| GUCCUCUUUCACGUGCGCGUGAAAGAGCGAAGAGAACCAGAGAAACACACGUUGUGGUAUAUUACCUGGUA | 0.145 |
| GUCCUCUUUCACGUGCGCGUGAAAGAGCGAAGGGAACCAGAGAAACACACGUUGUGGUAUAUUACCUGGUA | 0 |
| GUCCUCUUUCACGUGCGCGUGAAAGAGCGAAGUGAACCAGAGAAACACACGCUGUGGUAUAUUACCUGGUA | 0.584 |
| GUCCUCUUUCACGUGCGCGUGAAAGAGCGAAGUGAACCAGAGAAACACACGUUGAGGUAUAUUACCUGGUA | 0.155 |
| GUCCUCUUUCACGUGCGCGUGAAAGAGCGAAGUGAACCAGAGAAACACACGUUGUGGCAUAUUACCUGGUA | 0.545 |

| Variant | self-cleavage |
| --- | --- |
| GUCCUCUUUCACGUGCGCGUGAAAGAGCGAAGUGAACCAGAGAAACACACGUUGUGGUACAUUACCUGGUA | 0.558 |
| GUCCUCUUUCACGUGCGCGUGAAAGAGCGAAGUGAACCAGAGAAACACACGUUGUGGUAGAUUACCUGGUA | 0.383 |
| GUCCUCUUUCACGUGCGCGUGAAAGAGCGAAGUGAACCAGAGAAACACACGUUGUGGUAUAUUACCUGGCA | 0.426 |
| GUCCUCUUUCACGUGCGCGUGAAAGAGCGAAGUGAACCAGAGAAACACACGUUGUGGUAUAUUACCUGGGA | 0.322 |
| GUCCUCUUUCACGUGCGCGUGAAAGAGGGUAGUGAACCAGAGAAACACACGUUGUGGUAUAUUACCUGGUA | 0.0576 |
| GUCCUCUUUCACGUGCGCGUGAAAGAGGGACGUGAACCAGAGAAACACACGUUGUGGUAUAUUACCUGGUA | 0.113 |
| GUCCUCUUUCACGUGCGCGUGAAAGAGGGAAGUGACCCAGAGAAACACACGUUGUGGUAUAUUACCUGGUA | 0.778 |
| GUCCUCUUUCACGUGCGCGUGAAAGAGGGAAGUGAACCCGAGAAACACACGUUGUGGUAUAUUACCUGGUA | 0.748 |
| GUCCUCUUUCACGUGCGCGUGAAAGAGGGAAGUGAACCUGAGAAACACACGUUGUGGUAUAUUACCUGGUA | 0.536 |
| GUCCUCUUUCACGUGCGCGUGAAAGAGGGAAGUGAACCAGUGAAACACACGUUGUGGUAUAUUACCUGGUA | 1.05 |
| GUCCUCUUUCACGUGCGCGUGAAAGAGGGAAGUGAACCAGAGCAACACACGUUGUGGUAUAUUACCUGGUA | 0.153 |
| GUCCUCUUUCACGUGCGCGUGAAAGAGGGAAGUGAACCAGAGACACACACGUUGUGGUAUAUUACCUGGUA | 0.202 |
| GUCCUCUUUCACGUGCGCGUGAAAGAGGGAAGUGAACCAGAGAACCACACGUUGUGGUAUAUUACCUGGUA | 0.279 |
| GUCCUCUUUCACGUGCGCGUGAAAGAGGGAAGUGAACCAGAGAAACGCACGUUGUGGUAUAUUACCUGGUA | 0.198 |
| GUCCUCUUUCACGUGCGCGUGAAAGAGGGAAGUGAACCAGAGAAACACACGUUGUGGUAUAUUACCUGGUC | 1.26 |
| GUCCUCUUUCACGUGCGCGUGAAAGAGGGAAGUGAACCAGAGAAACACACGUUGUGGUAUAUUACCUGGUG | 0.941 |
| GUCCUCUUUCACGUGCGCGUGAAAGAGGGAAGUGAAUCAGAGAAACACACGUUGUGGUAUAUUACCUGGUA | 0.644 |
| GUCCUCUUUCACGUGCGCGUGAAAGAGGGAAGUGAACCAGAGAAAUACACGUUGUGGUAUAUUACCUGGUA | 0.137 |
| GUCCUCUUUCACGUGCGCGUGAAAGAGGGAAGUGAACCAGAGAAACAUACGUUGUGGUAUAUUACCUGGUA | 0.276 |
